3 molecules from PMC4017264 (Molecular Cell, 2014) can be followed below.

No end group written: not given here. *: point of attachment. FITC = O=C1OC2(c3ccc(O)cc3Oc3cc(O)ccc32)c2ccc(NC(=S)*)cc21; Ahx = NCCCCCC(=O)O

The subject of assay [1] is HOIP PUB domain (15N HOIP 1-184). Put plainly: NMR binding (chemical shift perturbation) to 15N-labeled HOIP PUB domain. Details: species or system Human. Particulars: 15N BEST-TROSY NMR, 100 μM 15N HOIP 1-184, 20 mM phosphate pH 6.8, 50 mM NaCl, 2 mM DTT, 298K. The method, then: Standard triple-resonance experiments (HNCA, HN(CO)CA, HNCACB, CBCA(CO)NH, and HBHA(CO)NH) were acquired for the assignment of HOIP resonances. Constant time ^13C and ^13C-HSQC were acquired for the methyl and aromatic regions. In addition, (HB)CB(CGCD)HD and (HB)CB(CGCDCE)HE experiments coupled the Cβ of tyrosine resonances to the Hδ and Hε positions of the tyrosine ring, respectively.
Fluorescence polarization binding assays
10 µl of 100 nM FITC-Ahx peptides of either OTULIN (49-67) or p97 (797-806) were aliquoted into a 384-well low volume plate (Corning). Serial dilutions of HOIP PUB into FP assay buffer (20 mM Tris pH 7.4, 100 mM NaCl, 1 mM DTT) were prepared and 10 µl of this was aliquoted to FITC-Ahx peptide-containing wells. Fluorescence polarization was recorded on a PheraStar plate reader (BMG Labtech) using an optics module with $ex = 485 nm and $em = 520 nm. To derive binding constants (KD), polarization values were fitted to a one-site binding model using Graphpad Prism 5.
Nuclear Magnetic Resonance Spectroscopy
Uniformly labeled 15N or 13C, 15N samples of HOIP were prepared following growth in 2M9 medium supplemented with either 15N NH4Cl or 13C glucose.
Proteins were purified as described above and all samples were exchanged into NMR sample buffer (20 mM Na2HPO4/NaH2PO4 pH 6.8, 50 mM NaCl, 2 mM DTT). Lyophilized OTULIN and p97 PIM peptides were reconstituted in NMR sample buffer and the pH adjusted to pH 6.8 prior to use. NMR data were acquired at 298K on Bruker Avance III 600 MHz and Avance2+ 700
MHz spectrometers, equipped with cryogenic triple resonance TCI probes.
Standard triple resonance experiments (HNCA, HN(CO)CA, HNCACB, CBCA(CO)NH, HBHA(CO)NH) were acquired for the assignment of backbone
HOIP resonances. In addition, constant-time (ct) 13C and 13C-HSQC were acquired for the methyl and aromatic regions. For assignment of the H",H# resonances of HOIP tyrosines, (HB)CB(CGCD)HD and (HB)CB(CGCDCE)HE spectra were acquired, which coupled the C$ position of the tyrosine resonances to the H"/H# position of the tyrosine ring respectively. […]

In the next assay the target is T1, PNGase PUB domain R55A (UniProt Q96IV0 11-109, Arg55 was mutated to Ala).
T1 construct: PNGase PUB domain with Arg55 mutated to Ala; also called PNGase mutant; Arg55 mutated to Ala
T1 sequence (looked up): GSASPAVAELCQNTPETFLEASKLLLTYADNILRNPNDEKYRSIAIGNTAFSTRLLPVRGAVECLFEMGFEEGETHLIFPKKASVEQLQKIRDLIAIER
Description: fluorescence polarisation; serially diluted PUB domains and HOIP variants mixed with an equal volume of 100 nM FITC-Ahx-labeled peptide; one-site binding model; triplicate. Particulars: both partners purified. A general note: In fluorescence polarisation assays a small probe gives low polarisation when free and higher when bound to something large.

For assay [2], the target named is T2, HOIP extended PUB domain (aa 1–184) (UniProt Q96EP0 1-184).
T2 construct: 15N- or 13C,15N-labelled for NMR; Construct details are in the Supplemental Experimental Procedures; also called HOIP PUB domain
T2 sequence (looked up): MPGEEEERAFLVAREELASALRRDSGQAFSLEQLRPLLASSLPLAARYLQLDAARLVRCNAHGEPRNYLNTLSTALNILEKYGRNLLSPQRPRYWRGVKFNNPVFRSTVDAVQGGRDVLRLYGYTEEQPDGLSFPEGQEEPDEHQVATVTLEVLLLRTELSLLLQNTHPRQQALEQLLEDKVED
The assay is described as above. Particulars: both partners purified.

Regarding “OTULIN 49-67: unlabeled OTULIN PIM peptide (aa 49–67) used in NMR and crystallization (AEHEEDMYRAADEIEKEKE)”, the “binding / chemical shift perturbations of HOIP PUB domain (in words)” value in assay [1] was “CSPs and loss of a large number of resonances, a feature common to slow exchange”.

B1: OTU domain: OTULIN catalytic (OTU) domain (aa 80–352) (protein)
chain: LSVAPEMDIMDYCKKEWRGNTQKATCMKMGYEEVSQKFTSIRRVRGDNYCALRATLFQAMSQAVGLPPWLQDPELMLLPEKLISKYNWIKQWKLGLKFDGKNEDLVDKIKESLTLLRKKWAGLAEMRTAEARQIACDELFTNEAEEYSLYEAVKFLMLNRAIELYNDKEKGKEVPFFSVLLFARDTSNDPGQLLRNHLNQVGHTGGLEQVEMFLLAYAVRHTIQVYRLSKYNTEEFITVYPTDPPKDWPVVTLIAEDDRHYNIPVRVCEETSL
modifications: left off: His6 (from the vector pOPINB), end not stated, state not stated
With B1, in assay [1], the “binding / chemical shift perturbations of HOIP PUB domain (in words)” value was “did not interact with the HOIP PUB domain”.

B2: fluorescently labeled OTULIN PIM peptide (aa 49–67) M55L (peptide, UniProt Q96BN8 49-67, looked up)
peptide: {FITC-Ahx}-AEHEEDLYRAADEIEKEKE
notes: OTULIN, residues 49-67, Met55 exchanged to Leu (as in p97); also called OTULIN M55L PIM peptide
Take B2: the Kd with PNGase PUB domain R55A is 5000 nM; in assay [2], 370 nM.

What is called Kd is the concentration at which binding is half-saturated.
